In article PMC3307390 (Journal of Immunology (Baltimore, Md. : 1950), 2010):
Peptide text beside a SMILES is read from it.

What was measured:
DQA1*0101/DQB1*0501 = DQA1*0101/DQB1*0501 (Homo sapiens, UniProt P01909+P01920, A157S/A45G/A70V/C70R/D89V/E106S/E118A/E183D/E77G/F83G/G63E/H151Q/H199R/H252R/H253Q/I129T/I235V/I88M/INS77G/K197Q/L107V/L117V/L119Y/L178F/L71W/L74F/L85Q/L91A/L98M/M46L/N214S/P87R/Q116E/Q256R/Q57E/Q76K/R102G/R240Q/R75S/R78G/S102Y/S185I/S41F/S97I/T103A/T109R/T121G/T122I/T172A/T86R/V148I/V68A/V73E/Y34C/Y58G/Y62H); assay: biochemical; type: binding
DQA1*0501/DQB1*0201 = DQA1*0501/DQB1*0201 (Homo sapiens, UniProt P01909+P01920, A45G/A70V/D89A/E106A/E77G/E98D/H199R/L107V/N214S/P84L/P87L/T103K/T109R/T172A/T60S/V78E/V99I/Y58L/Y62S/Y69I/Y79F); assay: biochemical
DQA1*0102/DQB1*0602 = DQA1*0102/DQB1*0602 (Homo sapiens, UniProt P01909+P01920, A157G/A45G/C70R/E118A/E183D/E77G/F83G/G63E/H151Q/H199R/H252R/H253Q/I129T/I235V/I88M/INS77G/K197Q/L117V/L119F/L178F/L71W/L74F/L85Q/L91A/L98M/N214S/P87R/Q116E/Q76K/R102G/R240Q/R75S/R78G/S102Y/S185I/S41F/S97I/T121G/T122I/T172A/T86R/V229M/V68A/V73E/Y34C/Y41F/Y58L); assay: biochemical; type: binding
[1] = biological target: HLA-DQ DQA1*0501/DQB1*0201 (human (endogenous in EBV-transformed cell line VAVY)); assay: radioligand binding
[2] = biological target: HLA-DQ DQA1*0301/DQB1*0302 (human (endogenous in EBV-transformed cell line Preiss)); assay: radioligand binding
[3] = biological target: HLA-DQ DQA1*0101/DQB1*0501 (human (endogenous in EBV-transformed cell line LG2)); assay: radioligand binding

With `CC(C)C[C@H](NC(=O)[C@@H](NC(=O)[C@H](Cc1c[nH]cn1)NC(=O)[C@H](CO)NC(=O)[C@H](Cc1ccccc1)NC(=O)[C@H](CO)NC(=O)CNC(=O)CNC(=O)[C@H](CC(C)C)NC(=O)[C@H](Cc1ccc(O)cc1)NC(=O)[C@H](CCCNC(=N)N)NC(=O)[C@H](Cc1ccc(O)cc1)NC(=O)[C@H](CC(C)C)NC(=O)[C@@H]1CCCN1)C(C)C)C(=O)O` the IC50 (DQA1*0101/DQB1*0501) was 2460 nM.

Molecule `CC[C@H](C)[C@H](NC(=O)[C@H](CO)NC(=O)[C@H](CCC(=O)O)NC(=O)[C@H](C)NC(=O)[C@H](CCC(=O)O)NC(=O)[C@H](CCSC)NC(=O)[C@H](CCC(N)=O)NC(=O)[C@H](CCCCN)NC(=O)[C@@H](NC(=O)[C@H](CC(=O)O)NC(=O)[C@H](CCC(=O)O)NC(=O)[C@H](CCSC)NC(=O)[C@H](C)NC(=O)[C@H](CCC(N)=O)NC(=O)[C@H](CC(=O)O)NC(=O)[C@H](CCC(=O)O)NC(=O)[C@@H](N)[C@@H](C)O)[C@@H](C)CC)C(=O)N[C@@H](CO)C(=O)O` has an IC50 (DQA1*0501/DQB1*0201) of 439 nM.

For `CC[C@H](C)[C@H](N)C(=O)N[C@@H](CC(N)=O)C(=O)N[C@@H](CCC(=O)O)C(=O)N1CCC[C@H]1C(=O)N[C@H](C(=O)N[C@@H](C)C(=O)N[C@@H](C)C(=O)N[C@@H](C)C(=O)N[C@H](C(=O)N[C@@H](C)C(=O)N[C@@H](Cc1ccc(O)cc1)C(=O)NCC(=O)N[C@@H](CC(C)C)C(=O)N[C@@H](CC(=O)O)C(=O)N[C@@H](CCCNC(=N)N)C(=O)O)[C@@H](C)CC)[C@@H](C)O` (H-INEPTAAAIAYGLDR-OH), the IC50 (DQA1*0102/DQB1*0602) was 6.3 nM.

TEDQAMEDIKQMEAESIS [Bos taurus a-S1 casein peptide …] gave an IC50 [1] of 439 nM.

For TPTEKDEYCARVNH [H. sapiens B2-m peptide …], the IC50 [2] was 29500 nM.

FDRSTKVIDFHYPNE gave an IC50 [2] of 3960 nM.

Molecule KPVSKMRMATPLLMQALP [Homo sapiens Ii chain peptide …] has an IC50 [1] of 30 nM.

PLYRYLGGSFSHVL [C. trachomatis enolase peptide …] was tested, and the IC50 [3] was 2460 nM.

DCLLCAYSIEFGTNISKEHD [Gallus gallus ovomucoid peptide …] gave an IC50 [2] of 146 nM.

For RMMEYGTTMVSYQPL, the IC50 [2] was 185 nM.
